Test results: paper PMC3839853 (FEBS Open Bio, 2013)

Biological target: the molecule itself
Experiment: crystal structure

B1: Recombinant wild-type Phanerochaete chrysosporium pyranose 2-oxidase (PcP2O_(RECWT)), full-length residues 1-621 with N-terminal T7-epitope tag and C-terminal … (enzyme, UniProt Q6QWR1 10-621, looked up)
chain: ADEPYDVFIAGSGPIGATFAKLCVDANLRVCMVEIGAADSFTSKPMKGDPNAPRSVQFGPGQVPIPGYHKKNEIEYQKDIDRFVNVIKGALSTCSIPTSNNHIATLDPSVVSNSLDKPFISLGKNPAQNPFVNLGAEAVTRGVGGMSTHWTCATPEFFAPADFNAPHRERPKLSTDAAEDARIWKDLYAQAKEIIGTSTTEFDHSIRHNLVLRKYNDIFQKENVIREFSPLPLACHRLTDPDYVEWHATDRILEELFTDPVKRGRFTLLTNHRCTKLVFKHYRPGEENEVDYALVEDLLPHMQNPGNPASVKKIYARSYVVACGAVATAQVLANSHIPPDDVVIPFPGGEKGSGGGERDATIPTPLMPMLGKYITEQPMTFCQVVLDSSLMEVVRNPPWPGLDWWKEKVARHVEAFPNDPIPIPFRDPEPQVTIKFTEEHPWHVQIHRDAFSYGAVAENMDTRVIVDYRFFGYTEPQEANELVFQQHYRDAYDMPQPTFKFTMSQDDRARARRMMDDMCNIALKIGGYLPGSEPQFMTPGLALHLAGTTRCGLDTQKTVGNTHCKVHNFNNLYVGGNGVIETGFAANPTLTSICYAIRASNDIIAKFGRHRG
- stoichiometry N: 4
